In this assay the target is Skp1-FBW7 complex (UniProt Q969H0). Nature of the assay: ITC; MicroCal VP-ITC, 30 °C, 50 mM phosphate buffer pH 7.4; cell: 15 μM Skp1-FBW7 complex (1400 μL); syringe: 300 μM FIR∆exon2, 25 injections of 10 μL.
Chain of UniProt Q969H0 (Q969H0 whole entry, chain 1 of 2): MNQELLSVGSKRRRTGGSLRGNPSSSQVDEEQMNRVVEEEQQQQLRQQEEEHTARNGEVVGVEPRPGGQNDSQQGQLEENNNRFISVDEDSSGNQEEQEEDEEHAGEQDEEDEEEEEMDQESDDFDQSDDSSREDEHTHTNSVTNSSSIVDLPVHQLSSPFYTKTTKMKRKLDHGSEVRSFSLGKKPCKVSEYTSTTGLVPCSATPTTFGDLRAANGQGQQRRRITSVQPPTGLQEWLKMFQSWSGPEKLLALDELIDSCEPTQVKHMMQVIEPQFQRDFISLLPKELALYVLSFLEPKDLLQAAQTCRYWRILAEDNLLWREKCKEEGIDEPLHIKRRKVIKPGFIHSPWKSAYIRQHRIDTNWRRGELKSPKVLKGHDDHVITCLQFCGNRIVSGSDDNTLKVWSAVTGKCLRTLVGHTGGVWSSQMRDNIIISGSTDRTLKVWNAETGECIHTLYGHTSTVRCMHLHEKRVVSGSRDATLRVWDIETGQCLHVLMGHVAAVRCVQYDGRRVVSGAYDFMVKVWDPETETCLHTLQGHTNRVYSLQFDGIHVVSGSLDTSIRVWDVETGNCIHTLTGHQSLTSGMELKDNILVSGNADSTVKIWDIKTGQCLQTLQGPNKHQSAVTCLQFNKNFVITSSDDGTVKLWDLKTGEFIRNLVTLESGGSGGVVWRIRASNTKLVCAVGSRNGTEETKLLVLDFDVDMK
Chain of UniProt Q969H0 (P63208 whole entry, chain 2 of 2, further chain): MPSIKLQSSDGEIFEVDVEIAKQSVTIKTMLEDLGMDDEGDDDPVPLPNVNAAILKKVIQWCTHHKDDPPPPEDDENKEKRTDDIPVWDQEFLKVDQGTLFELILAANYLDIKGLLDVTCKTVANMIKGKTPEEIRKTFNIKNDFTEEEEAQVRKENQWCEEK

Regarding “FIR∆exon2 (recombinant, Nus-tag cleaved) (natural protein)”, the Ka is above 108 M⁻¹.

Values taken from article PMC7028737.
